“And” between values parts separate entries of the source, which are not always exact repeats. Equal values may be shown once.
What was measured:
[1] = target: T1, recombinant human IL-12 (rhIL-12) (human, UniProt P29459 23-219; P29460 23-328); test: BIAcore SPR, rhIL-12
T1 construct: disulfide-linked p35/p40 heterodimer (p70); also called IL-12 p70; rec. human IL12
T1 sequence (looked up) 1: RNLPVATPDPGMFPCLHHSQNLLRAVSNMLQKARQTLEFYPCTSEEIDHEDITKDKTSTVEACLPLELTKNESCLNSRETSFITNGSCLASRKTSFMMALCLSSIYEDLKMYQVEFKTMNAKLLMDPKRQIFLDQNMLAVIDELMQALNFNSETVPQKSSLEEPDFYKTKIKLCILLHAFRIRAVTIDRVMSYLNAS
T1 sequence (looked up) 2: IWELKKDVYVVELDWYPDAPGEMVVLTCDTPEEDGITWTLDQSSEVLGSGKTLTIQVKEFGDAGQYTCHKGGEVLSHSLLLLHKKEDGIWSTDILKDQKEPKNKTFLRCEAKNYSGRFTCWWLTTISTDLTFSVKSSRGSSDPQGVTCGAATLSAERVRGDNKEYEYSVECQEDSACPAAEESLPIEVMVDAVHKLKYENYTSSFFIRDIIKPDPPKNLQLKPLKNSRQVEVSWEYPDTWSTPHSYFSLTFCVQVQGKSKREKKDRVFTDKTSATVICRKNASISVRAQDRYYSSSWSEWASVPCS
Protocol: (§1) Before injection of the protein and immediately afterward, HBS buffer alone flowed through each flow cell. […] Cytokines were diluted in HBS running buffer and 50 μl aliquots were injected through the immobilized protein matrices at a flow rate of 5 μl/min. […] The net difference in baseline signal and signal after completion of cytokine injection was taken to represent the binding value of the particular sample. Biosensor matrices were regenerated using 100 mM HCl before injection of the next sample. To determine the dissociation constant (off-rate), association constant (on-rate), BIAcore kinetic evaluation software (version 2.1) was used.
Kd was calculated for each separate experiment and then averaged.

[2] = target: T1, recombinant human IL-12 (rhIL-12); test: BIAcore, captured J695, soluble rhIL-12, average
Protocol: as §1

[3] = target: T1, recombinant human IL-12 (rhIL-12); test: receptor binding assay, 125I-hIL-12 on PHA blasts
Protocol: PHA blast cells isolated as described above, were washed once and resuspended in binding buffer to a cell density of 2×10⁷ cells/ml. […] The cell pellet was examined for cell bound radioactivity using a gamma counter. […] Incubations were carried out in duplicate.

B1: J695 (antibody, human IgG1, V domains shown)
VH: QVQLVESGGGVVQPGRSLRLSCAASGFTFSSYGMHWVRQAPGKGLEWVAFIRYDGSNKYYADSVKGRFTISRDNSKNTLYLQMNSLRAEDTAVYYCKTHGSHDNWGQGTMVTVSS
VL: QSVLTQPPSVSGAPGQRVTISCSGSRSNIGSNTVKWYQQLPGTAPKLLIYYNDQRPSGVPDRFSGSKSGTSASLAITGLQAEDEADYYCQSYDRYTHPALLFGTGTKVTVLG
notes: human IgG1 with lambda light chain
[1]
  Kd: 0.119 nM and 0.149 nM
[2]
  Kd: 0.134 nM and 0.0974 nM
[3]
  IC50: 0.05 nM

From patent US20150037348A1 (AbbVie / Abbott, published 2015)
